Assay results as given in patent publication US20260216242A1, “ALPP-SPECIFIC VARIANT ANTIGEN BINDING MOLECULES” (ALMAC DISCOVERY LIMITED, priority 2022, published 2026).

T1: ALPI expressed on the surface of CHO cells (CHO-ALPI) (Homo sapiens, UniProt P09923)
T1 construct: expressed in transfected cells
T1 sequence (P09923 20-503 limits assumed): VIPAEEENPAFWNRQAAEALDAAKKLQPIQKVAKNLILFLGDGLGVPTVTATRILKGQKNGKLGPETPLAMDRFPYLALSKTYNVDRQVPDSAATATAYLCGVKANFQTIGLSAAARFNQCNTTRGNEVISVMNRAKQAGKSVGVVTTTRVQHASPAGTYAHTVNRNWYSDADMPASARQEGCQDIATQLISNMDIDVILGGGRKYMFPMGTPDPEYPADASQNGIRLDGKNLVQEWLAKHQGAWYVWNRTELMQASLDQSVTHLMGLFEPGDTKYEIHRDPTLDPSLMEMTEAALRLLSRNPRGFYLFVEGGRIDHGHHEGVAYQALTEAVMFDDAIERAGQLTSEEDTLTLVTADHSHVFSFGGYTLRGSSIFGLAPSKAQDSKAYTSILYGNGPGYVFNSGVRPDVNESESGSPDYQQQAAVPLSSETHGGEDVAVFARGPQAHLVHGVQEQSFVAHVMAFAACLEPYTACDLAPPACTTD


Key:
[1] = molecular target: ALPP (Homo sapiens, UniProt P05187); assay: Epitope binning by BLI competition assay; type: binding; settings: BLI competition on immobilised ALPP
Description: To determine epitope cross reactivity BLI competition assays were conducted. AR2G sensors were used and ALPP immobilised as above. ALPP sensors were then dipped into a well containing a saturating concentration of the initial binder for ten minutes to get an association curve. The sensor was then dipped into a well containing the same concentration of initial binder plus 20 nM of a secondary binding.
An increase in the association curve was indicative that the second VHH bound to a distinct epitope from the initial binder. Monomers with identical CDR3s were grouped as likely to be in the same epitope bin and only one from each group used in the epitope binning experiment.

[2] = Thermal stability (Protein Thermal Shift assay); type: physicochemical; settings: VHH domains, first derivative analysis
Description: Thermal stability assays used Applied Biosystems StepOne Real Time PCR system with the Protein Thermal Shift™ dye kit (Thermo Fisher). The assay mix was set up so that the protein was at a final concentration of 20 µM in 20 μL. 5 μL of Thermal Shift™ buffer was added alongside 2.5 μL 8× Thermal Shift™ Dye. Assays were run using the StepOne software and data analysed using Protein Thermal Shift™ software. All data are from first derivative analysis.

[3] = molecular target: T1, ALPI expressed on the surface of CHO cells (CHO-ALPI); assay: Cell-surface binding by flow cytometry, CHO-ALPI; settings: for KDapp CHO-ALPI: VHH His proteins, up to 350 nM; for KDapp CHO-ALPI / binding to ALPI on CHO cells (in words): flow cytometry; for ALPI MFI as % of the ALPP MFI: VHH His at 350 nM; for binding to ALPI on CHO cells (in words): VHH proteins
Description: C-terminal His tagged VHH proteins were assessed for ALPP, ALPPL2, ALPI and ALPL cell-surface binding by flow cytometry. Binders encompassing different epitope bins were screened on CHO cells stably expressing ALPP, ALPPL2, ALPI or ALPL. High levels of cell-surface proteins expression were confirmed for each of the cell-lines by flow cytometry.
Cell surface binding of test agents to hALPP isoforms was characterized in four CHO-ALPP isoform stably transfected cell lines (CHO-ALPP, CHO-ALPPL2, CHO-ALPI and CHO-ALPL) and the resulting KDapp values determined. Adherent cells were detached from tissue culture flasks by incubating with 0.1% EDTA/PBS solution at 37° C. for ~10 minutes or until cells detached easily. Cells were re-suspended in ice-cold PBS/2% FCS in 15 ml tubes and centrifuged at 1700 rpm for 5 mins at 4° C. Supernatant was removed and the cell pellet re-suspended in PBS/2% FCS. A cell count was performed using a Chemometec Nucleocounter NC-202 and 2.5×10^5 cells were aliquoted per test sample into a 96 well plate. Cells were incubated with 100 μl of test agents at a range of concentrations, plus controls for 1 hr on ice. The sample plate was centrifuged at 1700 rpm for 5 mins at 4° C. The supernatant was removed, and a wash performed by re-suspending the cell pellets in 0.25 mL of ice-cold PBS/2% FCS using a multichannel pipette. Samples were again centrifuged at 1700 rpm for 5 min at 4° C. Supernatant was removed and two further washes performed as described. After the final wash and centrifugation step, excess liquid was removed by blotting the plate on tissue paper. Binding of VHH (His6 tagged) agents was determined by adding 100 μl of anti-x6His tag Ab (Abcam) per cell pellet sample as appropriate and incubating on ice for 30 mins. Wash steps were performed as described previously. Fitc-anti-mouse antibody (ThermoFisher) was used to detect binding of the VHH (His6 tagged) agents by incubating with the appropriate samples for 30 min on ice in the dark. Wash steps were performed as described previously. All cell pellets were finally re-suspended in […] of ice-cold PBS/2% FCS and left on ice in the dark prior to analysis on a Merck-Millipore Guava EasyCyte HT or Thermo Fisher Attune N×T flow cytometer.
VHH-hFc proteins were assessed for human ALPP, ALPPL2, ALPI and ALPL cell-surface binding by flow cytometry. Binders were screened on CHO cells stably expressing human ALPP, ALPPL2, ALPI or ALPL.
Cell surface binding of test agents to hALPP isoforms was characterized in four CHO-ALPP isoform transfectant cell lines (CHO-ALPP, CHO-ALPPL2, CHO-ALPI and CHO-ALPL) and the resulting KDapp values determined. Adherent cells were detached from tissue culture flasks by incubating with 0.1% EDTA/PBS solution at 37° C. for ~10 minutes or until cells detached easily. Cells were re-suspended in ice-cold PBS/2% FCS in 15 ml tubes and centrifuged at 1700 rpm for 5 mins at 4° C. Supernatant was removed and the cell pellet re-suspended in PBS/2% FCS. A cell count was performed using a Chemometec Nucleocounter NC-202 and 2.5×10^5 cells were aliquoted per test sample into a 96 well plate. Cells were incubated with 100 μl of test agents at a range of concentrations, plus controls for 1 hr on ice. The sample plate was centrifuged at 1700 rpm for 5 mins at 4° C. The supernatant was removed, and a wash performed by re-suspending the cell pellets in 0.25 mL of ice-cold PBS/2% FCS using a multichannel pipette. Samples were again centrifuged at 1700 rpm for 5 min at 4° C. Supernatant was removed and two further washes performed as described. After the final wash and centrifugation step, excess liquid was removed by blotting the plate on tissue paper. Binding of VHH-hFc agents was determined by adding 100 μl of Fitc-anti-human Ab (ThermoFisher) and incubating for 30 mins on ice in the dark. Wash steps were performed as described previously. […]

ALPP, sequence (P05187 with tags, fused parts or gaps): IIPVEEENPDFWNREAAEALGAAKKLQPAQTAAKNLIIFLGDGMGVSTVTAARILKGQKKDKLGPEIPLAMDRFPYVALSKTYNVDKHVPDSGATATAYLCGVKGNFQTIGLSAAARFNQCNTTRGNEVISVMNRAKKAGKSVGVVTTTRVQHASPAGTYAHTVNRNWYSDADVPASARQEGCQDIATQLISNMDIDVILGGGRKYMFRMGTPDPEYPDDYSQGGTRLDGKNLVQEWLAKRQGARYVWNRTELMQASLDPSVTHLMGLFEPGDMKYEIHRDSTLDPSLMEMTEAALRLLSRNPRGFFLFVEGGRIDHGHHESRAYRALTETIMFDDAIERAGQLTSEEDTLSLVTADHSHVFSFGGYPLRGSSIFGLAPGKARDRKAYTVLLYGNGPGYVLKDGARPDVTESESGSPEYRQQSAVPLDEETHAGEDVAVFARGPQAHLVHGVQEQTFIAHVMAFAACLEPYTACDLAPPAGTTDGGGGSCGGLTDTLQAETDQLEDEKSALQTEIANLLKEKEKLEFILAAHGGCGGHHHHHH

Molecule	epitope bin [1]	KDapp CHO-ALPI [3]	ALPI MFI as % of the ALPP MFI [3] [%]	binding to ALPI on CHO cells (in words) [3]	Tm [2] [°C]
F05: ALPP/ALPPL2 targeting VHH domain, SEQ ID NO: 34 (protein) VHH: QVQLVESGGGLVQAGGSLRLSCAASGRAFGDYNIGWFRQAPGKEREFVARRTWDGSSTRYDDSVKGRFTVSIDNAKNTAYLQMNSLKTEDTAVYYCAAGRYSRVRGWEYDYWGQGTQVTVSS	one	No binding	–	–	70.6
B01: ALPP/ALPPL2 targeting VHH domain, SEQ ID NO: 20 (protein) VHH: QVQLVESGGGLVQAGGSLRLSCEVTRSPMPIDTMAWYRQAPGRQRELVAIISRSGSTNYADSVKGRFTISRNDTKSTMYKSTMYLKMNTLELEDTGVYYCNAVGLWNGAEYWGQGTQVTVSS	three	No binding	–	–	82.7
A05: ALPP/ALPPL2 targeting VHH domain, SEQ ID NO: 16; tested C-terminally His-tagged (protein, C-terminal His tag, tested C-terminally His-tagged) VHH: QVQLVESGGGLVQAGASLTLSCAASGFTFNTRSIVWFRQAPGKEREAVSCISKVAGSTYYGDSVQGRFSSSTDNAKNTVSLQMNSLKPEDTAVYTCAASFAPNCYGWSVAANMEYWGEGTMVTVSS	one	No binding	–	–	69.5
D04: ALPP/ALPPL2 targeting VHH domain, SEQ ID NO: 26 (protein) VHH: QVQLVESGGGLVQPGGSLRLSCAASESTFSINVMGWYRQAPGKQRELVATITSGDITNYADSVKGRFTISRDNAENTVYLRTNSLKPEDTAVYYCNARGEYHSGNEYDYWGQGTQVTVSS	four	Minimal	9.5	weak binding	59.8

Further lines, with some results ahead:

epitope bin [1]	KDapp CHO-ALPI [3]	ALPI MFI as % of the ALPP MFI [3] [%]	binding to ALPI on CHO cells (in words) [3]	Molecule	Tm [2] [°C]
one	No binding	–	–	E06: ALPP/ALPPL2 targeting VHH domain, SEQ ID NO: 30 (protein) VHH: QVHLVESGGGLVQAGGSLRLSCAASRRSFSEYAMGWFRQAPGKEREFVAAIGWSGVIEYADSVKGRFTISRDNAKDTVYLQMNSLKPEDTAVYYCAAGLGIRVVSQTPAYWGQGTQVTVSS	81.1
one	No binding	–	–	E10: ALPP/ALPPL2 targeting VHH domain, SEQ ID NO: 31 (protein) VHH: QVQLVESGGGLVQAGGSLRLSCAVSGRALSDYNIGWFRQAPGKEREFVARKTWDGSSTRYDDSVKGRFTVSIEDAKNTAYLQMSSLKTEDTAVYYCAAGRYSRARGWEYDYWGQGTQVTVSS	71.8
one	Minimal	1.3	minimal binding	F08: ALPP/ALPPL2 targeting VHH domain, SEQ ID NO: 35 (protein) VHH: QVQLVESGGGSVQAGGSLRLSCAASGPSLSNYAMGWFRQAPGKEREFVAGISWGGGRTSYTDSVKGRFTISRDNAKNTVYLQMNNLKPEDTGVYYCAGRYGRGRNVEYEYDYWGQGTQVTVSS	77.6
four	No binding	–	–	C07: ALPP/ALPPL2 targeting VHH domain, SEQ ID NO: 25 (protein) VHH: QVQLVESGGGLVQAGESLRLACAASGTIFSGNAVGWYRQAPEKQREWVSSITDYGDTDYAEAVKGRFTISRDNAKNTVYLQMNSLKPEDTAVYYCYVYQRGESEEYWGQGTQVTVSS	70.7
five	No binding	–	–	D10: ALPP targeting VHH domain, SEQ ID NO: 28 (protein) VHH: QVQLVESGGGLVQPGGSLRLSCAASGSIFSVNTMGWYRQAPGKQRDLVAVATSGGTIHYADSVKGRFTISRDNAKNTVYLQMNSLKPEDTAVYYCNLVVPYGMIAGDHDYWGQGTKVTVSS	69.9
two	No binding	–	–	A06: ALPP/ALPPL2 targeting VHH domain, SEQ ID NO: 17; tested C-terminally His-tagged (protein, C-terminal His tag, tested C-terminally His-tagged) VHH: QVHLVESGGGLVQAGGSLRLSCAASGRTFLSMGWFRQAPGKEREFVAAISWTGGSTGYADSVKGRFTISRESDKETMYLQMNSLKPEDTAVYYCAARGDVYYGGDDATRYKYWGQGTQVTVSS	73.2
